Where no end group is shown, it is not given here. [ ]: non-standard residue; d: D form. pY = N[C@@H](Cc1ccc(OP(=O)(O)O)cc1)C(=O)O
Biological target: T1, ZAP-70 tandem SH2 domain R192A (1-256)
T1 construct: numbers count on: PDB 2OQ1 (holo-tSH2 structure); also called tSH2 R192A; C-SH2 domain mutant; source: E. coli BL21(DE3), purified (Ni-NTA, Q column, gel filtration)
Assay: ITC; Malvern PEAQ-ITC, 20 °C; C-SH2 mutant tSH2 (R192A, printed R190A in the methods) in 20 mM Hepes pH 8.2, 150 mM NaCl, 5 mM β-mercaptoethanol; titrated with 300 μM peptide; one-site binding model; constant printed under the column Kd2
Conditions: both partners purified

Kd: 12 ± 0.9 µM
B1: doubly-phosphorylated ITAM-ζ3 peptide (peptide)
chain: DGL[pY]QGLSTATKDT[pY]DALH

— paper PMC9486129, “An evolutionary divergent thermodynamic brake in ZAP-70 fine-tunes the kinetic proofreading in T cells” (The Journal of Biological Chemistry, 2022)
